Measurements: US20030143656A1

Legend:
[1] = molecular target: endogenous PDK1 (293 cells) (human) (UniProt O15530); assay: cell-based or functional assay
PIFtide (human) = assay: method not stated (reference mark lost)
Chain of PIFtide (human) (peptide, as listed by the source): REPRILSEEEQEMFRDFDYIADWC

Chain of endogenous PDK1 (293 cells) (human) (O15530 whole entry): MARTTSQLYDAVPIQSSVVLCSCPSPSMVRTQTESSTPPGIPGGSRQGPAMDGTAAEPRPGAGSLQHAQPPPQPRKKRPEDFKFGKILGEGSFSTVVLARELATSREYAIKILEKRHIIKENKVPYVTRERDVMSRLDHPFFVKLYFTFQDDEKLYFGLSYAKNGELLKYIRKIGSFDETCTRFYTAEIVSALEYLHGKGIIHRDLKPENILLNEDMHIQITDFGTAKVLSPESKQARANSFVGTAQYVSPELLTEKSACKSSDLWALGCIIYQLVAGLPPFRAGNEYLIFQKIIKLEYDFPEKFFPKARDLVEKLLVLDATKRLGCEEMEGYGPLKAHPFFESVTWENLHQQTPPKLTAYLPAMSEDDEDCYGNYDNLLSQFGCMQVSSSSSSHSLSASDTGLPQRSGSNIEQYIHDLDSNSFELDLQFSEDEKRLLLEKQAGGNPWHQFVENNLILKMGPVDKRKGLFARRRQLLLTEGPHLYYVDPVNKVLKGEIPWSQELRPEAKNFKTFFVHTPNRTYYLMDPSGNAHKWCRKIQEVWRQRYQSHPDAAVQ

Row | activation of p70 S6K on cotransfection with GST-F977A-PIF [1] [%] | fold decrease in affinity for PIFtide (PIFtide (human)) [fold] | Substance
1 | 50 |  | GST-F977A-PIF (from UniProt Q16513 908-984)
2 |  | 10 | GST-PDK1 I119A (from UniProt O15530 1-556) (enzyme)
